Experiments:
human Claudin-6 (human) [1] = biological target: human Claudin-6 (human) (UniProt P56747); test: cell-based or functional assay
human Claudin-6 (human) [2] = biological target: human Claudin-6 (human) (UniProt P56747); test: FACS, OV90 cells (endogenous CLDN6)
human Claudin-6 (human) [3] = biological target: human Claudin-6 (human) (UniProt P56747); test: FACS dose response, Claudin-6-HEK293 cells
human Claudin-6 (human) [4] = biological target: human Claudin-6 (human) (UniProt P56747); test: FACS, NEC8 cells (endogenous CLDN6)
human Claudin-4 (human) [5] = biological target: human Claudin-4 (human) (UniProt O14493); test: FACS on MCF7 cells, which endogenously express Claudin-3 and Claudin-4; MFI relative to the isotype control
human Claudin-3 (human) [6] = biological target: human Claudin-3 (human) (UniProt O15551); test: as above
human Claudin-6 (human) [7] = biological target: human Claudin-6 (human) (UniProt P56747); test: FACS, Claudin-6-CHO-K1 cells
human Claudin-4 (human) [8] = biological target: human Claudin-4 (human) (UniProt O14493); test: FACS, Claudin-4-CHO-K1 cells
human Claudin-6 (human) [9] = biological target: human Claudin-6 (human) (UniProt P56747); test: FACS dose response, Claudin-6-CHO cells
human Claudin-3 (human) [10] = biological target: human Claudin-3 (human) (UniProt O15551); test: FACS on Claudin-3-CHO-K1 cells, MFI relative to the isotype control
human Claudin-9 (human) [11] = biological target: human Claudin-9 (human) (UniProt O95484); test: FACS dose response, Claudin-9-HEK293 cells
human Claudin-9 (human) [12] = biological target: human Claudin-9 (human) (UniProt O95484); test: FACS, Claudin-9-HEK293 cells, 5 µg/ml
human Claudin-4 (human) [13] = biological target: human Claudin-4 (human) (UniProt O14493); test: FACS on Claudin-4-CHO-K1 cells, MFI relative to the isotype control

human Claudin-4 (human), sequence (O14493 whole entry): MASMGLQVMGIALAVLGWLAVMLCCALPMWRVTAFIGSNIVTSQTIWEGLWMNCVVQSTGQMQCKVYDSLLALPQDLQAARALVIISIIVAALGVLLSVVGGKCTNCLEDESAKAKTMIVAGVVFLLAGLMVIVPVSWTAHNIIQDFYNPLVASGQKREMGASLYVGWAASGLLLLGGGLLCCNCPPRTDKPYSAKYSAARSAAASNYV
human Claudin-3 (human), sequence (O15551 whole entry): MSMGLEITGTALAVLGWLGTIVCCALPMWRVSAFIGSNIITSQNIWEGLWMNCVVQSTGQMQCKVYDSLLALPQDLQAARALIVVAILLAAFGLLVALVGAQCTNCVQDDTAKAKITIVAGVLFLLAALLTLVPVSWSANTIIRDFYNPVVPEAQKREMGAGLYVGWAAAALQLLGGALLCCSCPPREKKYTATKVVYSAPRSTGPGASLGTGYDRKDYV
human Claudin-9 (human), sequence (O95484 whole entry): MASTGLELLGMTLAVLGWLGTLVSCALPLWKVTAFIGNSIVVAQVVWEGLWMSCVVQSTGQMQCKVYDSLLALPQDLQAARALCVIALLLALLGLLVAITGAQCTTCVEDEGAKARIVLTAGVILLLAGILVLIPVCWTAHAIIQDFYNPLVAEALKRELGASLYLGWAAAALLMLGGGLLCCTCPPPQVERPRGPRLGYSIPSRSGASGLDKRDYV
human Claudin-6 (human), sequence (P56747 whole entry): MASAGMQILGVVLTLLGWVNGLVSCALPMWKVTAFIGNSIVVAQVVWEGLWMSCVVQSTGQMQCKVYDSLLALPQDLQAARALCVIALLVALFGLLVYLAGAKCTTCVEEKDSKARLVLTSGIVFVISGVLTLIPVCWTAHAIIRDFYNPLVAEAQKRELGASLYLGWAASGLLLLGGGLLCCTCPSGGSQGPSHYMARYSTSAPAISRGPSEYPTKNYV

| Binder | endocytosis-mediated cytotoxicity (anti-hFc Fab-MMAF, CellTiter-Glo) on NEC8 cells, EC50 mean (St. Dev. 0.04) (human Claudin-6 (human) [1]) [nM] | endocytosis-mediated cytotoxicity on OV90 cells, EC50 (human Claudin-6 (human) [1]) [nM] | fold MFI over isotype control (human Claudin-6 (human) [2]) [fold] | EC50 (human Claudin-6 (human) [3]) [nM] | fold MFI over isotype control (human Claudin-6 (human) [4]) [fold] | fold MFI over isotype control (human Claudin-4 (human) [5]) [x] | fold MFI over isotype control (human Claudin-3 (human) [6]) [x] | fold MFI over isotype control (human Claudin-6 (human) [7]) [fold] | fold MFI over isotype control (human Claudin-4 (human) [8]) [fold] | EC50 (human Claudin-6 (human) [9]) [nM] | fold MFI over isotype control (human Claudin-3 (human) [10]) [x] | EC50 (human Claudin-9 (human) [11]) [nM] | fold MFI over isotype control (human Claudin-9 (human) [12]) [fold] | endocytosis-mediated cytotoxicity (anti-hFc Fab-MMAF, CellTiter-Glo) on NEC8 cells, EC50 mean (St. Dev. 0.03) (human Claudin-6 (human) [1]) [nM] | fold MFI over isotype control (human Claudin-4 (human) [13]) [x] |
| --- | --- | --- | --- | --- | --- | --- | --- | --- | --- | --- | --- | --- | --- | --- | --- |
| NR.N6.PC2 (antibody, from another filing, V domains shown) VH: QVQLVQSGAEVKKPGASVKVSCKASGYTFTSYWMNWVRQAPGQRLEWMGMIHPSDSEIRLNQKFKDRVTITRDTSASTAYMELSSLRSEDTAVYYCARIDSYYGYLFYFDYWGQGTTVTVSS VL: DIVMTQSPDSLAVSLGERATINCRASQTVSTSSYSYMHWYQQKPGQPPKLLIYFASNVESGVPDRFSGSGSGTDFTLTISSLQAEDVAVYYCQHSWEIPWTFGQGTKLEIKR | 0.14 | 1.71 | 15 | 8.73 | 20 | 1 | 1 | 25 | 4.5 | 24.5 | 1.6 | 7.57 | 32 | – | – |
| NR.N6.PC1 (antibody, from another filing, V domains shown) VH: EVQLQQSGPELVKPGASMKISCKASGYSFTGYTMNWVKQSHGKNLEWIGLINPYNGGTIYNQKFKGKATLTVDKSSSTAYMELLSLTSEDSAVYYCARDYGFVLDYWGQGTTLTVSS VL: QIVLTQSPSIMSVSPGEKVTITCSASSSVSYMHWFQQKPGTSPKLCIYSTSNLASGVPARFSGRGSGTSYSLTISRVAAEDAATYYCQQRSNYPPWTFGGGTKLEIK | – | 1.96 | 20 | 1.51 | 19 | 0.7 | 0.7 | 25 | – | 1.52 | 1.1 | 16.4 | 15 | 0.05 | 1.2 |
